Measured values published in patent US8728478.
Several values for one entry are separate records, joined by “and”; a condition that tells them apart may be missing. Equal entries are not always repeated.

Tests used:
[1] = target: Escherichia coli heat-stable enterotoxin A (STa), purified from a bovine ETEC K99+ isolate (Escherichia coli (ETEC isolated from a diarrheic neonatal calf)); assay: STa-binding indirect ELISA, end titer
[2] = target: Escherichia coli heat-stable enterotoxin A (STa), purified from a bovine ETEC K99+ isolate (Escherichia coli (ETEC isolated from a diarrheic neonatal calf)); assay: indirect ELISA on plate-bound STa, serum dilution 10^-6, pre-immunization serum
[3] = target: Escherichia coli heat-stable enterotoxin A (STa), purified from a bovine ETEC K99+ isolate (Escherichia coli (ETEC isolated from a diarrheic neonatal calf)); assay: indirect ELISA on plate-bound STa, serum dilution 10^-4, pre-immunization serum
[4] = target: Escherichia coli heat-stable enterotoxin A (STa), purified from a bovine ETEC K99+ isolate (Escherichia coli (ETEC isolated from a diarrheic neonatal calf))
[5] = target: Escherichia coli heat-stable enterotoxin A (STa), purified from a bovine ETEC K99+ isolate (Escherichia coli (ETEC isolated from a diarrheic neonatal calf)); assay: indirect ELISA on plate-bound STa, serum dilution 10^-3, pre-immunization serum
[6] = target: Escherichia coli heat-stable enterotoxin A (STa), purified from a bovine ETEC K99+ isolate (Escherichia coli (ETEC isolated from a diarrheic neonatal calf)); assay: indirect ELISA on plate-bound STa, serum dilution 10^-5, pre-immunization serum
[7] = target: Escherichia coli heat-stable enterotoxin A (STa), purified from a bovine ETEC K99+ isolate (Escherichia coli (ETEC isolated from a diarrheic neonatal calf)); assay: avidity ELISA on plate-bound STa, 5 M ammonium thiocyanate, Baseline

Work on “baseline (pre-immunization) rabbit serum (antibody)” yielded an ELISA Titer (reciprocal serum dilution) [1] of 0, a mean OD (405 nm) [2] of 0.039 OD and a mean OD (405 nm) [3] of 0.232 OD. The Avidity Index (%) [4] was 4.7% and 3% and 0%, the mean OD (405 nm) [5] was 0.864 OD and the mean OD (405 nm) [6] was 0.033 OD. The OD at 405 nm with 5 M ammonium thiocyanate [7] was 0.017 OD and 0.043 OD and 0.04 OD.
